Results taken from patent publication US20030165543A1 (LOMA LINDA UNIVERSITY, published 2003).

Biological target: bovine serum albumin (bovine, UniProt P02769 25-607)
Assay: GM1-ELISA binding assay

bovine serum albumin, sequence (P02769 25-607 limits assumed): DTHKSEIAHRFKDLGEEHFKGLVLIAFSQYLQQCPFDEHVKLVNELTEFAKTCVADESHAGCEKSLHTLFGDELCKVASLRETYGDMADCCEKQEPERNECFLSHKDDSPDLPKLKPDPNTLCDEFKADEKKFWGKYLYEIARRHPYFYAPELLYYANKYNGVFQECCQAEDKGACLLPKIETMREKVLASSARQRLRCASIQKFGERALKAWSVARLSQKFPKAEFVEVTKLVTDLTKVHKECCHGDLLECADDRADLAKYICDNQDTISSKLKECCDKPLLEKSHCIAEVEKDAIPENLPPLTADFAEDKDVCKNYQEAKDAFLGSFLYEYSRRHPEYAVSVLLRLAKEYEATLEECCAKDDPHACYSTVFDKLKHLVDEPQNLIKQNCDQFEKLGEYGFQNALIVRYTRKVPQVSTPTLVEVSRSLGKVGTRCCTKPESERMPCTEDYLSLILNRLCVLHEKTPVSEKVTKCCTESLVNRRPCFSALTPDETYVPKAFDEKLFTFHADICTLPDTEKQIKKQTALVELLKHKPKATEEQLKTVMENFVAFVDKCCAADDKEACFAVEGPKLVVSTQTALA

B1: bacterial cholera toxin B subunit (CTB), pentameric (other)
chain: TPQNITDLCAEYHNTQIYTLNDKIFSYTESLAGKREMAIITFKNGAIFQVEVPGSQHIDSQKKAIERMKDTLRIAYLTEAKVEKLCVWNNKTPHAIAAISMAN
Q: Does B1 bind?
A: Result: no binding
